In assay [1] the target is T1, CD47 on CCRF-CEM cells (human, UniProt Q08722 19-323).
T1 construct: Target is CD47 carried by the CD47-positive cell line CCRF-CEM; also called Cluster of Differentiation 47; integrin-associated protein
Nature of the assay: flow cytometry on antibody-opsonized CCRF-CEM cells, anti-human Alexa 647 secondary, median fluorescence, sigmoidal fit. The protocol: (§1) Phagocytosis was assayed by serum starving the macrophages in incomplete AIM V media for two hours. During this incubation period, target cells (CCRF-CEM) from two donors (donor 1 and donor 2) were labeled with CSFE (Invitrogen, #C34554) at […] for 15 minutes at room temperature. Cells were rinsed twice with PBS (Hyclone, #SH30028.02) and resuspended at 8×10⁵/mL in AIM V media. Antibody dilutions were prepared at 0.01 ug/ml to 10 ug/ml in half log dilutions and then incubated with the target cell line for 10 minutes at room temperature (a small portion is retained for flow cytometric analysis/cell binding), after which 100 μL of target cell/antibody suspension was added to the macrophage plates. Samples were treated in triplicate and with appropriate isotype controls.
(§2) Samples were incubated for 30 minutes at room temperature, rinsed 2× and then resuspended in FACS buffer and analyzed on the Attune. The EC50 values refer to the concentration that gives half the maximum binding measured as median fluorescent intensity, and was determined by non-linear fit of a sigmoidal dose response within the GraphPad Prism software.
A general note: A flow cytometer gives signals particle by particle.

Assay [2] has as its target T1, CD47 on CCRF-CEM cells. Put plainly: cell-based or functional assay.
Assay [3] concerns the target T1, CD47 on CCRF-CEM cells. Nature of the assay: flow cytometry on antibody-opsonized CCRF-CEM cells, anti-human Alexa 647 secondary, median fluorescence, sigmoidal fit; Donor 1. As to the method: as §1, §2
For assay [4], the target named is T1, CD47 on CCRF-CEM cells. Put plainly: flow cytometry on antibody-opsonized CCRF-CEM cells, anti-human Alexa 647 secondary, median fluorescence, sigmoidal fit; Donor 2. As to the method:
as §1, §2

Values joined by “and” are separate entries in the source; they are usually repeats but may differ in a detail not shown here. Equal entries are not always repeated.

T1 sequence (Q08722 19-323): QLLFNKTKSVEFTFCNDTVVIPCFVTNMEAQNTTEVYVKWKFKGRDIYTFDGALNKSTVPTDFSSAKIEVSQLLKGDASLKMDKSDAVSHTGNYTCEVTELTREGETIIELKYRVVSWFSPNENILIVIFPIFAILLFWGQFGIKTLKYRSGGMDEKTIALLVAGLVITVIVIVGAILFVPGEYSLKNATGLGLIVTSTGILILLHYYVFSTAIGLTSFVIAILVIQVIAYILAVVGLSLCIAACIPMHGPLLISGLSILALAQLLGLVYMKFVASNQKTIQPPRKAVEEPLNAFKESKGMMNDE

B1: Ab1119/Ab356 (LC Ab1119, HC Ab356) anti-CD47 antibody (antibody, V domains shown)
VH: QMQLVQSGAEVKKPGSSVKVSCKASGFNIKDYYLHWVRQAPGKGLEWMGWIDPDQGDTEYAQKFQGRVTITRDRSTSTAYMELRSLRAEDTAVYYCNAAYGSSSYPMDYWGQGTTVTVSS
VL: NIQMTQSPSSLSASVGDRVTITCRASQDIHRYLSWFQQKPGKVPKHLIYRANRLVSGVPSRFSGSGSGTEFTLTISSLQPEDFATYYCLQYDEFPYTFGGGTKVEIK
notes: Variant of AbParental
Take B1: the EC50 (usually the concentration needed to bring the measured effect to its halfway point) with CD47 on CCRF-CEM cells [1] was 0.014 µg/mL and 0.035 µg/mL; with CD47 on CCRF-CEM cells [3] it was 0.06 µg/mL; with CD47 on CCRF-CEM cells [4], 0.16 µg/mL. For the same molecule, the “Phagocytosis EC50 (ug/mL), Donor 1” value in the assay with CD47 on CCRF-CEM cells [2] was 0.36 µg/mL and 0.31 µg/mL and 0.14 µg/mL.

The values above are taken from patent publication US20190241654A1 (published 2019).
